From article PMC9214829

Biological target: proteasome regulatory particle (S. cerevisiae) (UniProt P33299)
Assay: co-IP

Sequence of UniProt P33299 (P33299 whole entry, looked up): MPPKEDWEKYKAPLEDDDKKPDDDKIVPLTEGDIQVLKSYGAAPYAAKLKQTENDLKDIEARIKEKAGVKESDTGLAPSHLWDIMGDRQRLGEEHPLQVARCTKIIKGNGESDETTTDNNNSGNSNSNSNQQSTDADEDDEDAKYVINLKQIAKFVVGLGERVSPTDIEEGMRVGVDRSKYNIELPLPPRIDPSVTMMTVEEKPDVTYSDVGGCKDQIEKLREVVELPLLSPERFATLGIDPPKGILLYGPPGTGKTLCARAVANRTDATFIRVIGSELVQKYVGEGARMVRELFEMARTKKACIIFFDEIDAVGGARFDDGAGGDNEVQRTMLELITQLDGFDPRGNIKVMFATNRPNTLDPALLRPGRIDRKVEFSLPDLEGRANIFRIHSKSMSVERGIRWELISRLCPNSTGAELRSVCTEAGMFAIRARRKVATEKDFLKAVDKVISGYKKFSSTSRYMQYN

relative % of RP-bound chaperone in wild type (not4Δ set as 100%): 20%
Substance: Rpn14 (from UniProt P53196 1-417) (natural protein)
